The record followed here is US20130115635A1 (VIB VZW, published 2013).

Numbering of substitutions follows the chain as printed.

Assay [1] concerns the target T1, α-synuclein (UniProt P37840 1-140). The assay can be described thus: phage display panning on immobilised antigen.
Assay [2] deals with T2, Rev-[…] (HIV).
T2 construct: also called HIV-Rev-EPEA
Nature of the assay: colocalisation in double-transfected HeLa cells, confocal microscopy.

Assay [3] concerns the target T1, α-synuclein. The assay can be described thus: ITC, 303.1 K. For orientation: ITC needs no label: the signal is the heat of the interaction.
Assay [4] deals with T1, α-synuclein. Nature of the assay: ITC, 310.1 K.
In assay [5] the target is T1, α-synuclein. Nature of the assay: ITC, 298.1 K.
For assay [6], the target named is T1, α-synuclein. Nature of the assay: ITC, 293.1 K.
For assay [7], the target named is T3, Nb458-gaaEPEA (CA2945).
T3 construct: also called Nb458 tagged with the gaaEPEA tag
Nature of the assay: affinity capture on NbSyn2 sepharose, elution with 1 M NaCl, SDS-PAGE.

For assay [8], the target named is Nb458-… (CA2944). The assay is described as above.
In assay [9] the target is T3, Nb458-gaaEPEA (CA2945). Nature of the assay: ELISA: Nb458-gaaEPEA coated at 0.1 or 0.01 µg/well, detected with biNbSyn2 alkaline phosphatase conjugate at dilutions 1/250 to 1/4000, OD405 after 60 minutes. For orientation: In an ELISA, binding on a coated surface is turned into a signal by an enzyme label.
Assay [10] concerns the target T4, β-synuclein (UniProt Q16143 1-134).
T4 construct: also called beta-synuclein
The assay can be described thus: phage display panning on immobilised antigen.

Assay [11] has as its target T1, α-synuclein. Nature of the assay: 15N-1H HSQC NMR titration.

T4 sequence (Q16143 whole entry): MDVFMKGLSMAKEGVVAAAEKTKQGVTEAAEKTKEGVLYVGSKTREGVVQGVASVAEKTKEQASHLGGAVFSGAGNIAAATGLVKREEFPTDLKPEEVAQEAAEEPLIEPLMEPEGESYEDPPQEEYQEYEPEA
T3 sequence (VHH, as listed by the source): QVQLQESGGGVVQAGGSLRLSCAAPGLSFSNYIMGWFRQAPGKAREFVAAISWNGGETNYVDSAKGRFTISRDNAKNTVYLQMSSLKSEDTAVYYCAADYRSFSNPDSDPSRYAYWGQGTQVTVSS

B1: NbSyn1b (VHH)
VHH: DVQLVESGGGSVQAGGSLRLSCAPSGLNASSYCMGWFRQSPGKEREGVARINGNAGIKTAYADSVKDRFTLSRDNAKNTVYLQMNSLKAEDSAMYYCAAKSSPGYCGGNWDNFGYWGQGTQVTVSS
For B1, the binding result in assay [1] is listed as “binds”.

B2: NbSyn1a-GFP (VHH)
VHH: B1 VHH with D1E, R19S, S21A, M94I, Y96F
As for B2, the binding result in assay [2] was “binds”.

B3: NbSyn1a-mKO1 (VHH)
VHH: B1 VHH with D1E, R19S, S21A, M94I, Y96F
notes: not shown: mKO1, mKusabira orange fluorescent protein
In the case of B3, the binding result in [2] is recorded as “binds”.

B4: NbSyn1c (VHH)
VHH: B1 VHH with D1Q, S25L
B4: in assay [1], the binding result is “binds”.

B5: NbSyn1a (VHH)
VHH: B1 VHH with D1E, R19S, S21A, M94I, Y96F
Consider B5, for which the binding result in assay [1] is listed as “binds”.

B6: NbSyn2 (VHH)
VHH: QGQLVESGGGSVQAGGSLRLSCAASGIDSSSYCMGWFRQRPGKEREGVARINGLGGVKTAYADSVKDRFTISRDNAENTVYLQMNSLKPEDTAIYYCAAKFSPGYCGGSWSNFGYWGQGTQVTVSS
notes: also called His-tagged NbSyn2; NbSyn2-His6tagged
For B6, the Kd is 99 nM in [3] and 260 nM in [4]. Also, the Stoichiometry amounted to 0.87 in assay [3], 0.91 in [4], 0.93 in assay [5] and 0.99 in assay [6]. Besides, the binding result in assay [7] and in [8] was “binds” throughout.

B7: biNbSyn2 alkaline phosphatase conjugate (VHH)
chain: QVQLVESGGGSVQAGGSLRLSCAASGIDSSSYCMGWFRQRPGKEREGVARINGLGGVKTAYADSVKDRFTISRDNAENTVYLQMNSLKPEDTAIYYCAAKFSPGYCGGSWSNFGYWGQGTQVTVSSGGGGSGGGSQVQLQESGGGSVQAGGSLRLSCAASGIDSSSYCMGWFRQRPGKEREGVARINGLGGVKTAYADSVKDRFTISRDNAENTVYLQMNSLKPEDTAIYYCAAKFSPGYCGGSWSNFGYWGQGTQVTVSSHHHHHH
notes: also called biNbSyn2-AP; bivalent NbSyn2
Take B7: the binding result in assay [9] is reported as “binds”.

B8: Nb86 (VHH)
VHH: QVQLQESGGGSVQAGGSLRLSCALSGYTFRGNRMAWFRQAPGKEREGVARINTGGVNTYVADSVKGRFTISQDNAKNTVYLQMNNLQPEDTAMYFCAADLTGWRPVGFSGYNYWGQGTQVTVSS
As to B8, the binding result in assay [10] is “binds”.

B9: Nb87 (VHH)
VHH: QVQLQESGGGSVQTGGSLRLSCVASGYSGYMAWFRQAPGKEREGIAAIYRGDKITYYAHSVQGRFTISQANAKNTVYLLMNSLKPEDTAIYYCAARRVVADSPLLSKTYAYWGQGTQVTVSS
With B9, the binding result in [10] and in [11] was “binds” throughout.

B10: Nb85 (VHH)
VHH: QVQLQESGGGSVQAGGSLRLSCAASGLTYSNYCMGWFRQAPGKAREVVARISTRGIKTYYADSVNGRFTISRDNAKNMVYLQMNSLKPEDTAIYYCAAVIYPGYGDSCPWTTSVNYWGQGTQVTVSS
notes: also called NbSyn85
On to B10, for which the binding result in [10] is reported as “binds”.

Usually Kd stands for a measure of binding affinity in units of concentration. Low readings indicate a tighter complex, high ones a looser complex.
